# Test: yeast display, Sf9 membrane polyspecificity reagent, FACS + sequencing; frameworks hold sequencing errors
# In short: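 Genes from sorted yeast were amplified by colony PCR, read by MiSeq 2 × 250 sequencing and filtered on CDR length. These cells carried a synthetic nanobody library in Saccharomyces cerevisiae BJ5465 and were sorted by FACS into low and high (top ~1%) gates on anti-HA and streptavidin fluorescence. Polyreactivity is labelled according to the gate of origin.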
row,Sequence,polyreactivity (PSR sort gate)
1,QVQLLESGGGLVQAGGSLRLSCAASGSIFNRYAMGWYRQAPGKERELVAAISSTGSTYYADSVKGRFTISRDNAKNTVYLQMNSLKPEDTAVYYCNAEATHDWLRVDTYEDWGQGTQVTVSS,low polyreactivity
2,QVQLLESGGGLVQAGGSLRLSCAASGSIFYRYAMGWYRQAPGKEREFVAAISGSGSSTYYADSVKGRFTISRDNAKNTVYLQMNSLKPEDTAVYYCAARWRYYGSFDYWGQGTQVTVSS,high polyreactivity
3,QVQLLESGGGLVQAGGSLRLSCAASGSIFYWNAMGWYIQARGKERELLAAINYSGDSTYDADSVKGAFTISRDNAKNTVYLQMNSLKPEDTAVYYCNFDYWGQGTQVTVSS,low polyreactivity
4,QVQLLESGGGLVQAGGSLRLSCAASGSTFDDNAMGWYRQAPGKERELVAGISDGDDSTNYADSVKGRFTISRDNAKNTVYLQMNRLKPEDTAVYYCNARYVRTYGVRFGYDYWGQGTQVTVSS,low polyreactivity
5,QVQLLESGGGLVQAGGSLRLSCAASGSTFDSYEMGWYRQAPGKERELVAGISYSSDRTYYADSVKGRFTISRDNAKNTVYLQMNSLKPEDTAVYYCAKDHTGTVQYPLDYWGQGTQVTVSS,low polyreactivity
6,QVQLLESGGGLVQAGGSLRLSCAASGSTFKSYAMGWYRQAPGKERELVAAISGRGGSTYYADSVKGRVTISRDNAKNTVYLQMNSLKPEDTAVYYCNALGSQRYDYWGQGTQVTVSS,high polyreactivity
7,QVQLLESGGGLVQAGGSLRLSCAASGSTFRSYAMGWYRQATGKERELVAAISGRGGNTYYADSVKGRFTISRDNAKNTVYLQMNSLKPEDTAVYYCARKTVYYGSDYWGQGTQVTVSS,high polyreactivity
8,QVQLLESGGGLVQAGGSLRLSCAASGSTFTKYDMGWYRQAPGKERELVAAIRSGGDTNYADSVKGRFTISLDNAKNTVYLQMNSLNPEDTAVYYLAAARGPTNHTSYPWYEYDYWGQCTQVTVSS,low polyreactivity
9,QVQLLESGGGLVQAGGSLRLSCAASGSTIVSYDMGWYRQAPGKERELVAAITYDGDSTYYADSVKGRFTISRDNAKNTVYLQMNSLKPEDTAVYYCAAEPGEDLKFRGGFEYWGQGTQVTVSS,low polyreactivity
10,QVQLLESGGGLVQAGGSLRLSCAASGYTFQIKAMGWYRQAPGKERELVAAITSGGRTYYADSVKGLFTISRDNAKNTVYLQMNSLKPEDTAVYYCNKVPRRGVDYWGQGTQVTVSS,low polyreactivity
11,QVQLLESGGGLVQAGGSLRLSCAPSGRTFVFNGRGWYRPATAKERELVAAINRSGGSTYYAVSVKGRFTISRDNGKNTVYLQMNSLKPEDTAVYYCLIQHNGLGYWGQGTQVTVSS,low polyreactivity
12,QVQLLESGGGLVQAGGSLRLSCAPSGSTFGYYAMGWYRPAPGKERELVAAITSGGRTYYADSVKGRFTISRDNAKNTVYLQMISLKPEETAVYYFAAIYRTYNKFDYWGQGTQVTVSS,high polyreactivity
13,QVQLLESGGGLVQAGGSLRLSCASSGRTFLTNAMGWYRQAPGKERELVAVITDGDTTYADSVKGRFTISRDNAKNTVYLLMNSLKPEDSAVYYCAADENYWSAGYDSWGLGTQVTVSS,low polyreactivity
14,QVQLLESGGGLVQAGGSLRLSCDASGFTFVAYAMGWYRQAPGKERELVAVISRGGSTYYADSVKGRFTISRDNAKNTVYLQMNSLKPEDTAVYYCAATFIHSYGKFFYWGQGTQVTLSS,low polyreactivity
15,QVQLLESGGGLVQAGGSLRLSCSASGITFFVYDMGWYRQAPGKERDLVAAITWAGDSTYYADSVKGRFTISRDNAKNTVYLQMNSLKPEDTAVYYCAAQFDVYYSRQPYDYNRSGYWGQGTQVTVSS,low polyreactivity
16,QVQLLESGGGLVQAGGSLRLSFAASGLTLGAYAMVWYRQAPGKERELVAAITNGGSTDYADSVKGRFTISRDNAKITVYLQMNSLKPEDTAVYYCAKDISRPDRGMDYWGQGTQVTVSS,low polyreactivity
17,QVQLLESGGGLVQAGGSLRLTCAASGSTFPDYAMGWYRQAPGKEREFVASITWSDGSTYYADSVKGRFTISRDNAKNSVYLQMNRLKQEDTAVYYCNADYVYYYIPVVYEYDYWGQGTQVTVSS,high polyreactivity
18,QVQLLESGGGLVQAGGTLPLSCAASGRTFKYYAMGWYRQAPGKERELVAGISSTGRTNYADSVKGRFTISRDNAKNTVYLEMNSLKPEDTAVYYCNAERKSFGKFVYWGQGTLVTVSS,high polyreactivity
19,QVQLLESGGGLVQAGGTLRLSCAASGSTFAKYGMGWYRQAPGKERELVAAISRSGGRTYYADSVKGRFTISRDNAKNTVYLQMNSLKPEDTAVYYCATDGIRLTRHRDYDYWGQGTQVTVSS,low polyreactivity
20,QVQLLESGGGLVQSGGSLRVSCAASGRNFGRYDMGWYRQAPGKERELVATISSRGGNTYYADSVKGRVTISRDNAMNTVYLQMNSLTPDDTAVYYCAAQTYKWYDWGQGTQVTVSS,high polyreactivity

# Reference: the nanobody polyreactivity screen of Harvey et al. (2022)
